Laboratory results reported in the supplement of paper PMC10567573.
± gives the standard deviation.

Assay: protein stability index of a GFP-peptide fusion (GPS, HEK-293T) (PSI 1-6); higher = more stable
[1] = treatment: DMSO, c terminus: a fixed tail appended
[2] = treatment: MLN4924 1 uM, 8 h, c terminus: a fixed tail appended
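Also: 24-mer peptide tiles fused after GFP, lentivirally expressed, FACS-sorted into six equal bins by GFP/DsRed ratio, decoded by Illumina sequencing, PSI is the read-weighted mean bin number.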

Sequence	protein stability index [1]	protein stability index [2]	protein stability index (treatment: DMSO, c terminus: native)	protein stability index (treatment: MLN4924 1 uM, 8 h, c terminus: native)
PPGYSAWIKEEAAERYLYFPNWAM [SLC6A17]	2.33 ± 0.28	2.11 ± 0.4	–	–
ENAQIIYSLAEDTIQGVPLSSYIS [PCDHGA10]	2.51 ± 0.41	2.82 ± 0.43	–	–
KTLKAENAGLSSTAGLLREQVAQL [JUNB]	3.72 ± 0.38	4 ± 0.15	–	–
DTWTLTEEHGLQQERPRPEPGRLG [PXN]	4.93 ± 0.34	4.92 ± 0.19	–	–
TFSLKTVLMIAIQLISRMEYVHSK [CSNK1G3]	3.5 ± 0.67	3.16 ± 0.46	–	–
AEGSPGGPGDSQGRKRRQTSMTDF [CDKN1A]	5.23 ± 0.1	5.13 ± 0.22	–	–
TGILIFAIGVGQVDFNTLKSIGSE [MATN2]	3.69 ± 0.069	3 ± 0.56	–	–
AYDFHGSWEKVTGHNSPLYKRQEE [CHIT1]	4.33 ± 0.37	4.14 ± 0.45	–	–
LKIYNKREEDFPSLREYNDFLEEV [MNAT1]	3.19 ± 0.39	3.68 ± 0.72	–	–
RGAPPPPPSRAPTAAPPPPPPSRP [WASL]	5.11 ± 0.19	5.17 ± 0.2	–	–
MSADPHLASSLSPSQDERMRSPQN [NOL4L]	5.17 ± 0.25	5.15 ± 0.24	–	–
PLLLLCNIKPRRYLTVVFEHDAWF [SLC29A1]	3.09 ± 0.71	3.06 ± 0.52	–	–
EHFGIVPLEAMYMQCPVIAVNSGG [ALG2]	2.33 ± 0.11	2.59 ± 0.37	–	–
LLCWSVWWALSTCGYFQVVNYTQG [SLC19A2]	3.41 ± 0.59	3.61 ± 0.29	–	–
YRWQGRRWEPSGKAEPRLPDRVYI [TBX6]	2.11 ± 0.26	2.22 ± 0.37	–	–
TSAVLKAGRQSVSGRKNSTSKDLV [C6orf223]	4.26 ± 0.074	4.38 ± 0.22	–	–
LPPPDPNPPRAEFNYSVGFKDLNE [APBB1IP]	4.42 ± 0.23	4.36 ± 0.075	–	–
DDLVPKGKKFLLLSINRYERKKNL [ALG2]	2.58 ± 0.092	2.67 ± 0.29	–	–
AESQGCNHEEDAGVRCNTPAMGLQ [LOXL2]	5.34 ± 0.27	5.29 ± 0.3	–	–
SMALTCTFNRWGTLLAVGCNDGRI [RBBP5]	2.48 ± 0.33	2.35 ± 0.34	–	–
VSISVVHGNLSEEAAKQMRSRGKV [CPOX]	3.37 ± 0.47	3.47 ± 0.52	–	–
SPDGALLATASYDTRVYIWDPHNG [WSB1]	2.5 ± 0.41	2.51 ± 0.6	–	–
KQLNCVEISALNGNRINVPMVRKR [DLC1]	4.12 ± 0.24	4.07 ± 0.3	–	–

Sequence	protein stability index [1]	protein stability index [2]	protein stability index (treatment: DMSO, c terminus: native)	protein stability index (treatment: MLN4924 1 uM, 8 h, c terminus: native)
SRKVTTNKLLLSIIILLELAILGG [VTI1B]	2.98 ± 0.7	2.84 ± 0.65	–	–
WYQPSFHGVDLSALRGAAVDEYFR [CARM1]	2.71 ± 0.18	2.75 ± 0.34	–	–
DYVMTTLLFSDKNVNSNLITWNRV [TRIP13]	2.4 ± 0.75	2.36 ± 0.62	–	–
LSVLPQLEFKLKSNDNEERLQVVK [PDS5B]	3.77 ± 0.11	3.7 ± 0.25	–	–
VIYNYVQRPFIRMSWEKEEGKSRH [BTBD10]	2.24 ± 0.32	2.46 ± 0.17	–	–
ERTYSANCSDFLESKGCFANTTPS [SPATS1]	3.67 ± 0.14	3.56 ± 0.18	–	–
QAIYVIDFFWNETWYLKTIDICHD [DHCR7]	3.14 ± 0.37	3.25 ± 0.4	–	–
DDKLFQKLAKVYSYAHGWMFQGWN [CPN1]	2.45 ± 0.51	2.25 ± 0.45	–	–
AAQAAAAAHAAQAHRERNEFPEDP [PI4K2A]	5.36 ± 0.35	5.5 ± 0.1	–	–
DKENIYILLEYCSRRSMAHILKAR [PLK2]	2.2 ± 0.29	2.55 ± 0.43	–	–
KCKQVKEKCKEEFVEEIKKLATQH [ZMYND11]	4.12 ± 0.15	4.14 ± 0.23	–	–
IPSEEWPNPPTLQEAGLSHTEVLF [FAF2]	3.8 ± 0.23	3.81 ± 0.21	–	–
NCFEITLELSCDKFPPEEELQREW [CPN1]	2.77 ± 0.24	3.1 ± 0.22	–	–
ALQAPHSPSKTDGKELAGTMDGEG [PBXIP1]	5.25 ± 0.25	5.34 ± 0.084	–	–
TLGELKQNLSRSWHDVQVSSAYVK [TPD52L2]	2.96 ± 0.23	3.26 ± 0.27	–	–
SQCQMETKPLAIHPCGDKNCPAHW [ADAMTSL2]	3.91 ± 0.62	4.53 ± 0.31	–	–
DEDDSTSRFSSSTEQSSASRLMRR [DVL3]	5.28 ± 0.25	5.36 ± 0.26	–	–
TELRLLGRTHSACDALRTLAEARR [RSAD1]	3.46 ± 0.21	3.59 ± 0.18	–	–
SSALACTLPTLPAKVYVGVKQEIA [NCF4]	3.2 ± 0.2	3.1 ± 0.35	–	–
FRLETLAGLRSRRLKQPKAFCLRD [MIR22HG]	2.52 ± 0.28	2.46 ± 0.29	–	–
RNNANGVDLNRNFPDLNTYIYYNE [CPN1]	3.17 ± 0.26	3.14 ± 0.28	–	–
AKNAAKDMNGKSLHGKAIKVEQAK [RBMY1A1]	4.64 ± 0.23	5.01 ± 0.53	–	–
DKFVATMYHYLQFAYYKLNDVRQA [P3H4]	2.75 ± 0.39	2.77 ± 0.47	–	–

Sequence	protein stability index [1]	protein stability index [2]	protein stability index (treatment: DMSO, c terminus: native)	protein stability index (treatment: MLN4924 1 uM, 8 h, c terminus: native)
EEWLDILGNGLLRKKTLVPGPPGS [FKBP8]	2.62 ± 0.12	2.78 ± 0.5	–	–
MEPPGPVRGPLQDSSWYEPSAELV [ZNF232]	4.79 ± 0.3	4.67 ± 0.43	–	–
IERLTREVEATRRALIDRMVNLHQ [DDIT3]	2.45 ± 0.18	2.61 ± 0.24	–	–
LEENDETRFILSKVPSEAPSPMPT [SLC6A17]	4.8 ± 0.15	4.84 ± 0.17	–	–
IFNVAIPRFHMACPTFRVSIARLE [FBXO3]	2.19 ± 0.57	2.2 ± 0.47	–	–
GHLEVVRYLVGEHQADLEVANRHG [FEM1A]	3.4 ± 0.48	3.24 ± 0.41	–	–
AKNQSDEAKEAKGSGYEKLGPSRD [RTP4]	5.47 ± 0.16	5.34 ± 0.26	–	–
EQLIEAINNGDFEAYTKICDPGLT [CAMK2D]	4.06 ± 0.34	4.1 ± 0.23	–	–
KIKRLRSQVQVSLEDYINDRQYDS [HNF4A]	3.23 ± 0.19	3.45 ± 0.15	–	–
ERDLQELSIQVEEERRAREWLLDA [ZMAT5]	4.54 ± 0.092	4.95 ± 0.32	–	–
KKEDTEKERDLRDVGDWRKNIEEK [TNNI2]	5.38 ± 0.26	5.39 ± 0.21	–	–
MADCILVNSQFTAAVFKETFKSLS [ALG2]	2.66 ± 0.42	2.73 ± 0.55	–	–
EEKQRELARKGSLKNGSMGSPVNQ [FAM219A]	5.33 ± 0.097	5.35 ± 0.16	–	–
ELRLYKQQVKKLEKALKKNVKLQE [CEP70]	2.8 ± 0.59	3.08 ± 0.25	–	–
CEHICVNSDDSYTCECLEGFRLAE [MATN2]	4.11 ± 0.69	4.71 ± 0.62	–	–
LQGALDLLAVLCVDGSGRARQAAC [ZSWIM9]	2.2 ± 0.27	2.02 ± 0.18	–	–
KAPVQNEAPALGGGEYQEPGGNVK [BEX5]	5.48 ± 0.21	5.54 ± 0.26	–	–
MNLMNELKQNFSKSWHDMQTTTAY [TPD52L1]	2.62 ± 0.34	2.47 ± 0.15	–	–
FLLIVTLCVILYKKVHKGTVPKND [GLT8D2]	2.59 ± 0.8	2.3 ± 0.59	–	–
SRETECSRVGKQSFIITLGCNSVL [CARM1]	2.3 ± 0.66	2.09 ± 0.38	–	–
DDSCQDQPGTNCALAIKVNLCGHW [ADAMTSL2]	2.57 ± 0.1	2.65 ± 0.46	–	–
FDPKTKRILTLQKANSWFNCRKN [MMP1]	–	–	2.84 ± 0.41	2.78 ± 0.25
SKIPFKILSGHEHAVSTCHFCVDD [WDR88]	2.91 ± 0.25	3.07 ± 0.26	–	–

Sequence	protein stability index [1]	protein stability index [2]	protein stability index (treatment: DMSO, c terminus: native)	protein stability index (treatment: MLN4924 1 uM, 8 h, c terminus: native)
SEAWEYFHLAPARAGHHPNQYATC [ZBED2]	2.59 ± 0.26	2.58 ± 0.23	–	–
AAGVAAAFGAPIGGTLFSLEEGSS [CLCN6]	3.94 ± 0.09	3.97 ± 0.17	–	–
NVYHSYDLPWFRTLSWYFLLCVNY [CDS2]	2.93 ± 0.23	2.98 ± 0.28	–	–
LLEDPLCADVILVLQERVRIFAHK [RHOBTB2]	2.21 ± 0.21	2.5 ± 0.25	–	–
LQQDFQNIQETHRLYRLKLEELTK [TMEM120A]	3.3 ± 0.38	3.37 ± 0.28	–	–
LQCLQALYVDSLFFLRGRLDQLLR [PRAME]	2.09 ± 0.057	2.2 ± 0.61	–	–
DEKAKPRDRQQAPGLGQESKAPGS [TLE6]	5.49 ± 0.21	5.49 ± 0.21	–	–
DALNRRKAQLLARVNKEHEHKLKV [TRIM9]	3.47 ± 0.11	3.29 ± 0.092	–	–
EFCRNTLCAPEVISLINTRMLFWA [FAF2]	2.74 ± 0.45	2.73 ± 0.32	–	–
ELQQRNPKAERLRWSPAQEESFRQ [ZNF232]	3.3 ± 0.37	3.49 ± 0.77	–	–
PEKHQVPEKLIWGDQDPLSKIPFK [WDR88]	3.72 ± 0.22	4.26 ± 0.38	–	–
FQEAAGPREALSRLQELCHGWLRP [ZNF263]	2.66 ± 0.4	2.67 ± 0.35	–	–
RQGPKEPPRKSGSFHSSGEKQKQP [PBXIP1]	4.86 ± 0.27	5.17 ± 0.15	–	–
DMRRDEEGSLCAAHLPKAQLSGYA [FBF1]	4.12 ± 0.25	4.15 ± 0.25	–	–
SPSVPCIFCEEHFPVAEQDKLLKH [ZNF277]	4.16 ± 0.24	4.37 ± 0.084	–	–
LLPQERPLMQGPRTRPRKPIRCGE [KLHL20]	3.71 ± 0.35	3.98 ± 0.084	–	–
PGLLEEDNQWMTQINRLQKLIDRL [NECAB1]	2.51 ± 0.23	2.88 ± 0.2	–	–
EKSVTKDAEGLAARDVQKIIGDYF [INTS4]	2.85 ± 0.4	3.51 ± 0.12	–	–
ECVWNGSDSVIMTGSYNNFFRMFD [PPP2R2B]	2.23 ± 0.34	2.27 ± 0.39	–	–
VLISNHVTPFDHNIVNLLTTCSTP [AUP1]	2.59 ± 0.66	2.48 ± 0.35	–	–
